In the series the test system is Escherichia coli TOP10. Nature of the series: shrunken log2 fold change of peptide-encoding DNA abundance (4.5 h post-induction vs induction); higher = less antimicrobial activity (less host growth inhibition). Particulars: time post-induction: 4.5 h; library: site-saturation at positions 5, 18, 19, 20.
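Further: peptides expressed intracellularly from a pBAD plasmid library in pooled LB shake-flask culture, induced with 0.3% L-arabinose, DNA abundance read by NGS, three biological replicates, DESeq2 with apeglm shrinkage.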

In the case of RRIRARPPRLPRPRPRPECVPRP, the “shrunken log2 fold change” value is 1.07.

As for RRIRNRPPRLPRPRPRPLWDPRP, the “shrunken log2 fold change” value is -0.00945. In the case of RRIRLRPPRLPRPRPRPPTNPRP, the “shrunken log2 fold change” value came out at 0.177. The value for RRIRDRPPRLPRPRPRPAMPPRP was -0.107; that for RRIRIRPPRLPRPRPRPNCQPRP was -0.367. Consider RRIRIRPPRLPRPRPRPWPGPRP, for which the “shrunken log2 fold change” value is -0.172.

In the case of RRIRARPPRLPRPRPRPLGSPRP, the “shrunken log2 fold change” value amounted to 0.471.

As for RRIRYRPPRLPRPRPRPCLFPRP, the “shrunken log2 fold change” value is -0.931.

Regarding RRIRFRPPRLPRPRPRPFAYPRP, the “shrunken log2 fold change” value was 0.0263.

Regarding RRIRFRPPRLPRPRPRPWVIPRP, the “shrunken log2 fold change” value was -0.412.

Consider RRIRRRPPRLPRPRPRPEFIPRP, for which the “shrunken log2 fold change” value was -0.0197. Consider RRIRIRPPRLPRPRPRPFSNPRP, for which the “shrunken log2 fold change” value was -0.28. For RRIRWRPPRLPRPRPRPYAWPRP, the “shrunken log2 fold change” value is 0.122. The value for RRIRRRPPRLPRPRPRPIDIPRP was -0.118; that for RRIRFRPPRLPRPRPRPSWWPRP was 0.212; that for RRIRGRPPRLPRPRPRPWGNPRP was 0.0898. For RRIRPRPPRLPRPRPRPMFAPRP, the “shrunken log2 fold change” value is -0.0605.

With RRIRSRPPRLPRPRPRPDGQPRP, the “shrunken log2 fold change” value is -0.00208. In the case of RRIRDRPPRLPRPRPRPDIKPRP, the “shrunken log2 fold change” value came to 0.543. Turning to RRIRLRPPRLPRPRPRPILQPRP, the “shrunken log2 fold change” value was -0.129. For RRIRGRPPRLPRPRPRPFMWPRP, the “shrunken log2 fold change” value worked out at 0.211. As for RRIRNRPPRLPRPRPRPDCLPRP, the figure is 0.0127; as for RRIRGRPPRLPRPRPRPIFHPRP, 0.249; as for RRIRGRPPRLPRPRPRPFTKPRP, -0.282.

In the case of RRIRTRPPRLPRPRPRPQQAPRP, the “shrunken log2 fold change” value is -0.0444. The value for RRIRWRPPRLPRPRPRPTMAPRP was 0.449; that for RRIRNRPPRLPRPRPRPPAPPRP was 0.78; that for RRIRTRPPRLPRPRPRPKLGPRP was 0.106. As for RRIRWRPPRLPRPRPRPLKGPRP, the figure is 0.0212; as for RRIRQRPPRLPRPRPRPKRVPRP, -0.154. In the case of RRIRGRPPRLPRPRPRPLWIPRP, the “shrunken log2 fold change” value turned out to be 0.163. As for RRIRDRPPRLPRPRPRPYWWPRP, the “shrunken log2 fold change” value came out at 0.021. As for RRIRLRPPRLPRPRPRPRPIPRP, the figure is 0.384.

RRIRGRPPRLPRPRPRPAIQPRP: the “shrunken log2 fold change” value worked out at 0.438. Consider RRIRIRPPRLPRPRPRPARCPRP, for which the “shrunken log2 fold change” value was 0.0563. The value for RRIRPRPPRLPRPRPRPNAKPRP was -0.0129.

As for RRIRFRPPRLPRPRPRPNQMPRP, the “shrunken log2 fold change” value was -0.167.

With RRIRARPPRLPRPRPRPQQEPRP, the “shrunken log2 fold change” value is -0.0196. As for RRIRCRPPRLPRPRPRPCRDPRP, the figure is -0.142. The value for RRIRVRPPRLPRPRPRPKKRPRP was 0.154; that for RRIRTRPPRLPRPRPRPNRDPRP was -0.0614.

RRIRCRPPRLPRPRPRPPCDPRP: the “shrunken log2 fold change” value came to 0.242.

For RRIRFRPPRLPRPRPRPKQGPRP, the “shrunken log2 fold change” value was -0.00975. Turning to RRIRKRPPRLPRPRPRPWPKPRP, the “shrunken log2 fold change” value amounted to 0.274. The value for RRIRCRPPRLPRPRPRPKCGPRP was 0.0778; that for RRIRPRPPRLPRPRPRPYMFPRP was -0.897; that for RRIRPRPPRLPRPRPRPEHLPRP was -0.109. The value for RRIRTRPPRLPRPRPRPPDKPRP was -0.146. As to RRIRYRPPRLPRPRPRPICHPRP, the “shrunken log2 fold change” value was -0.305.

With RRIRIRPPRLPRPRPRPTCSPRP, the “shrunken log2 fold change” value was -0.371.

Regarding RRIRYRPPRLPRPRPRPKFSPRP, the “shrunken log2 fold change” value was -0.434.

As for RRIRQRPPRLPRPRPRPSSVPRP, the “shrunken log2 fold change” value is 0.00784.

As to RRIRGRPPRLPRPRPRPQPMPRP, the “shrunken log2 fold change” value amounted to 0.412. The value for RRIRCRPPRLPRPRPRPTEAPRP was 0.425; that for RRIRYRPPRLPRPRPRPIDKPRP was -0.00865; that for RRIRLRPPRLPRPRPRPFQPPRP was 0.113.

Regarding RRIRYRPPRLPRPRPRPWCQPRP, the “shrunken log2 fold change” value is -0.243. As for RRIRVRPPRLPRPRPRPFDPPRP, the figure is -0.0153; as for RRIRCRPPRLPRPRPRPWGYPRP, -0.372; as for RRIRRRPPRLPRPRPRPWPNPRP, -0.0193.

As to RRIRVRPPRLPRPRPRPWWHPRP, the “shrunken log2 fold change” value amounted to 0.0994. As for RRIRTRPPRLPRPRPRPEITPRP, the “shrunken log2 fold change” value was -0.0572. As for RRIRERPPRLPRPRPRPYMVPRP, the figure is -0.832; as for RRIRHRPPRLPRPRPRPRVPPRP, -0.134. As for RRIRRRPPRLPRPRPRPLPMPRP, the “shrunken log2 fold change” value stood at 0.541.

With RRIRFRPPRLPRPRPRPMDEPRP, the “shrunken log2 fold change” value came out at 0.0137. On to RRIRQRPPRLPRPRPRPRRMPRP, for which the “shrunken log2 fold change” value came out at 0.455. RRIRRRPPRLPRPRPRPLIMPRP: the “shrunken log2 fold change” value is -0.325.

Consider RRIRKRPPRLPRPRPRPSIKPRP, for which the “shrunken log2 fold change” value is -0.004. For RRIRRRPPRLPRPRPRPGAYPRP, the “shrunken log2 fold change” value is 0.00783. In the case of RRIRARPPRLPRPRPRPNAAPRP, the “shrunken log2 fold change” value was determined as 1.13. Take RRIRARPPRLPRPRPRPCCIPRP: the “shrunken log2 fold change” value stood at 0.13. Turning to RRIRFRPPRLPRPRPRPPWPPRP, the “shrunken log2 fold change” value amounted to 0.564. The value for RRIRLRPPRLPRPRPRPDCMPRP was -0.0708. The value for RRIRMRPPRLPRPRPRPSNAPRP was 0.405; that for RRIRFRPPRLPRPRPRPVWTPRP was -0.488; that for RRIRERPPRLPRPRPRPNSLPRP was 0.0427. As for RRIRHRPPRLPRPRPRPIPYPRP, the figure is -0.3; as for RRIRPRPPRLPRPRPRPAVSPRP, 0.171; as for RRIRERPPRLPRPRPRPTQNPRP, 0.262. As to RRIRSRPPRLPRPRPRPAKRPRP, the “shrunken log2 fold change” value turned out to be 0.214. The value for RRIRERPPRLPRPRPRPTVAPRP was 0.075; that for RRIRCRPPRLPRPRPRPSEVPRP was -0.328; that for RRIRPRPPRLPRPRPRPVMYPRP was -0.0963. As to RRIRQRPPRLPRPRPRPSGDPRP, the “shrunken log2 fold change” value was -0.00374. For the sequence RRIRNRPPRLPRPRPRPPFQPRP, the “shrunken log2 fold change” value was 0.0529. The value for RRIRWRPPRLPRPRPRPQDTPRP was -0.0161. As for RRIRARPPRLPRPRPRPSNHPRP, the figure is -0.089. On to RRIRKRPPRLPRPRPRPCWTPRP, for which the “shrunken log2 fold change” value was -0.0905. As for RRIRIRPPRLPRPRPRPMYHPRP, the figure is -0.839; as for RRIRVRPPRLPRPRPRPHCWPRP, 0.0268.

The values above are taken from the supplement of paper PMC9112550, “Optimization of the antimicrobial peptide Bac7 by deep mutational scanning” (BMC Biology, 2022).
